Reference: paper PMC9482650, “Quantitative fragmentomics allow affinity mapping of interactomes” (Nature Communications, 2022)

T1: CARD11, Q9BXL7
T1 sequence (Q9BXL7 662-765, limits assumed, looked up): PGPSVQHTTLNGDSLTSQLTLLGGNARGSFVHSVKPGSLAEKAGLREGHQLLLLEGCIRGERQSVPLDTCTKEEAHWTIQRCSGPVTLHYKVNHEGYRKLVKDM

T2: GRIP1_4, Q9Y3R0
T2 sequence (Q9Y3R0 467-571, limits assumed, looked up): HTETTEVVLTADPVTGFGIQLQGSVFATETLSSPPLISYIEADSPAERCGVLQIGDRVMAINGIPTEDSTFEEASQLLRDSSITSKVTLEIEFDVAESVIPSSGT

T3: LIN7C, Q9NUP9
T3 sequence (Q9NUP9 88-185, limits assumed, looked up): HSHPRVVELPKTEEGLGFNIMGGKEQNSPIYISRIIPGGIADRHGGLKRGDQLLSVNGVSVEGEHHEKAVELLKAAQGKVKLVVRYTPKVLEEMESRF

T4: MPDZ_12, O75970
T4 sequence (O75970 1857-1958, limits assumed, looked up): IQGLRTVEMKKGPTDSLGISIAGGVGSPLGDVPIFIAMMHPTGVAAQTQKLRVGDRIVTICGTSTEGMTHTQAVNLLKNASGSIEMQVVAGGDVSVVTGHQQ

T5: PARD3B_1, Q8TEW8
T5 sequence (Q8TEW8 196-299, limits assumed, looked up): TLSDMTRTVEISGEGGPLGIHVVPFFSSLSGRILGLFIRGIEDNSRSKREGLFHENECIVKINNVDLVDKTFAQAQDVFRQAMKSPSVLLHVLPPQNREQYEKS

T6: RHPN1, Q8TCX5
T6 sequence (Q8TCX5 508-602, limits assumed, looked up): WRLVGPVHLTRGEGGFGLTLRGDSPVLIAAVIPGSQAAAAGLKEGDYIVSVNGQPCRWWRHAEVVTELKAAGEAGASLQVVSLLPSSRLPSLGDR

T7: SHANK1, Q9Y566
T7 sequence (Q9Y566 658-767, limits assumed, looked up): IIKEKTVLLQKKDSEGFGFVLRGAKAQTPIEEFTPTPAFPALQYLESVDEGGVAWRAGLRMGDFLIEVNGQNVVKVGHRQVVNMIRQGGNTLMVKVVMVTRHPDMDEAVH

T8: SIPA1L2, Q9P2F8
T8 sequence (Q9P2F8 945-1036, limits assumed, looked up): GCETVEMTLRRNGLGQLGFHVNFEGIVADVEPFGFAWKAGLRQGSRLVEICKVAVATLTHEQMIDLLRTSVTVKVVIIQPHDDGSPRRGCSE


Experiments:
Test in all cases: holdup assay
Parameters in all cases: key: below the threshold = too weak to quantify, mostly under pKd 3.1 to 4
Conditions in all cases: plain residues with an end cap or a label only (N-terminal biotin on a linker: ado-ado)
CARD11, Q9BXL7 = target: T1, CARD11, Q9BXL7
DLG1_3, Q12959 = target: DLG1_3, Q12959
DLG4_1, P78352 = target: DLG4_1, P78352
FRMPD2_2, Q68DX3 = target: FRMPD2_2, Q68DX3
FRMPD4, Q14CM0 = target: FRMPD4, Q14CM0
GORASP1, Q9BQQ3 = target: GORASP1, Q9BQQ3
GRID2IP_2, A4D2P6 = target: GRID2IP_2, A4D2P6
GRIP1_4, Q9Y3R0 = target: T2, GRIP1_4, Q9Y3R0
GRIP2_4, Q9C0E4 = target: GRIP2_4, Q9C0E4
HTRA2, O43464 = target: HTRA2, O43464
Inadl_1, Q8NI35 = target: Inadl_1, Q8NI35
Inadl_2, Q8NI35 = target: Inadl_2, Q8NI35
Inadl_6, Q8NI35 = target: Inadl_6, Q8NI35
LDB3, O75112 = target: LDB3, O75112
LIN7C, Q9NUP9 = target: T3, LIN7C, Q9NUP9
LNX1_3, Q8TBB1 = target: LNX1_3, Q8TBB1
MAGI2_2, Q86UL8 = target: MAGI2_2, Q86UL8
MAGI2_6, Q86UL8 = target: MAGI2_6, Q86UL8
MPDZ_12, O75970 = target: T4, MPDZ_12, O75970
NHERF2_2, Q15599 = target: NHERF2_2, Q15599
NHERF4_1, Q86UT5-2 = target: NHERF4_1, Q86UT5-2
NHERF4_4, Q86UT5 = target: NHERF4_4, Q86UT5
PARD3B_1, Q8TEW8 = target: T5, PARD3B_1, Q8TEW8
PTPN3, P26045 = target: PTPN3, P26045
RHPN1, Q8TCX5 = target: T6, RHPN1, Q8TCX5
SCRIB_3, Q14160 = target: SCRIB_3, Q14160
SHANK1, Q9Y566 = target: T7, SHANK1, Q9Y566
SIPA1L2, Q9P2F8 = target: T8, SIPA1L2, Q9P2F8
SNX27, Q96L92 = target: SNX27, Q96L92

Chain of MAGI2_6, Q86UL8 (Q86UL8 1141-1229): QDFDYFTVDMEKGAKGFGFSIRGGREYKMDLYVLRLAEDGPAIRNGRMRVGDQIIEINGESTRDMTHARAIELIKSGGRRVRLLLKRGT
Chain of LDB3, O75112 (O75112 1-94): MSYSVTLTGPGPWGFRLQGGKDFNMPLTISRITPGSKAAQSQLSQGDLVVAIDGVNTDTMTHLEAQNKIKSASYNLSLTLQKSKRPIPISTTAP
Chain of HTRA2, O43464 (O43464 355-458): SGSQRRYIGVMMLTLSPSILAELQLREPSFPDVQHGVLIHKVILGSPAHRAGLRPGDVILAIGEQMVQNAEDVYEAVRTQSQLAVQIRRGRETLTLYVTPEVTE
Chain of MAGI2_2, Q86UL8 (Q86UL8 410-522): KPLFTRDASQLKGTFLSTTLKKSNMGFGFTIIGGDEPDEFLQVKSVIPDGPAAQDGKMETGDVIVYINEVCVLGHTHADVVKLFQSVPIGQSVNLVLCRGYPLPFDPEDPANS
Chain of GRIP2_4, Q9C0E4 (Q9C0E4 446-548): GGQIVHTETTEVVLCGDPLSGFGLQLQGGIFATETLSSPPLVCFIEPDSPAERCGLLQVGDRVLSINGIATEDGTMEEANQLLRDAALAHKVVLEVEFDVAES
Chain of DLG4_1, P78352 (P78352 62-152): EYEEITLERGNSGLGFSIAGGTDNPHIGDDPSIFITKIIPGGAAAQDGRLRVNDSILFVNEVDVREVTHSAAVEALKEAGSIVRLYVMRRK
Chain of NHERF4_1, Q86UT5-2 (Q86UT5 other isoform, or with tags, fused parts or gaps): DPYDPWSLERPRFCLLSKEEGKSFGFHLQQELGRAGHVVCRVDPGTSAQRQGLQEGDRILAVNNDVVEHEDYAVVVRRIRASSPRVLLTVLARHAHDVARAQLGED
Chain of Inadl_2, Q8NI35 (Q8NI35 238-335): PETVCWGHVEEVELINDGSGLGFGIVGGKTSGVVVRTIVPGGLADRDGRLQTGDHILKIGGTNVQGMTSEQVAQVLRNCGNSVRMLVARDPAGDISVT
Chain of Inadl_6, Q8NI35 (Q8NI35 1058-1167): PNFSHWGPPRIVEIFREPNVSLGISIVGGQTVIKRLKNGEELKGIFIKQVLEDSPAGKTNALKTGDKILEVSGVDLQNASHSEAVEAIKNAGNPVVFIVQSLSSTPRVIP
Chain of LNX1_3, Q8TBB1 (Q8TBB1 500-596): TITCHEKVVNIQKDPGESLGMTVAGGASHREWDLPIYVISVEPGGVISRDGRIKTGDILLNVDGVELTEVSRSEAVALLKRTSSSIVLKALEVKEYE
Chain of Inadl_1, Q8NI35 (Q8NI35 113-229): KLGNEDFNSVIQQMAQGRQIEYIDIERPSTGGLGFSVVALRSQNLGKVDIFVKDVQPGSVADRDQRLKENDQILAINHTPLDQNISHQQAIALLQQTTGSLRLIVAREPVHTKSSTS
Chain of NHERF4_4, Q86UT5 (Q86UT5 464-550): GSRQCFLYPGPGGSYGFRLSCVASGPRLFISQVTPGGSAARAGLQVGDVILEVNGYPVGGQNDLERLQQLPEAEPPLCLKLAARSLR
Chain of FRMPD4, Q14CM0 (Q14CM0 67-160): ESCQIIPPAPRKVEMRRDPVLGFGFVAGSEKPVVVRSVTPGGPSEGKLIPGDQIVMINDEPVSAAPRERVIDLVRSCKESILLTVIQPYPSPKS
Chain of FRMPD2_2, Q68DX3 (Q68DX3 944-1038): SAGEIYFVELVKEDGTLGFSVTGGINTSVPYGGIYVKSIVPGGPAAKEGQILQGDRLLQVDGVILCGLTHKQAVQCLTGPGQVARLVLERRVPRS
Chain of GRID2IP_2, A4D2P6 (A4D2P6 272-370): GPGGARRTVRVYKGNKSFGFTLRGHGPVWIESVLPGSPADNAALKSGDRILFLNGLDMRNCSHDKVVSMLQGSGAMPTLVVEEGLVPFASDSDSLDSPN
Chain of DLG1_3, Q12959 (Q12959 457-571): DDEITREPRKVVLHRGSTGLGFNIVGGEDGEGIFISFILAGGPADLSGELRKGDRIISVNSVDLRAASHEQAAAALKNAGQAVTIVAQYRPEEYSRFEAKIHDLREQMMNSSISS
Chain of NHERF2_2, Q15599 (Q15599 142-238): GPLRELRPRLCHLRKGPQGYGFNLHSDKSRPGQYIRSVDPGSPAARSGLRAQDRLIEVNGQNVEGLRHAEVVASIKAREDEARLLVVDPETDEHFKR
Chain of GORASP1, Q9BQQ3 (Q9BQQ3 1-208): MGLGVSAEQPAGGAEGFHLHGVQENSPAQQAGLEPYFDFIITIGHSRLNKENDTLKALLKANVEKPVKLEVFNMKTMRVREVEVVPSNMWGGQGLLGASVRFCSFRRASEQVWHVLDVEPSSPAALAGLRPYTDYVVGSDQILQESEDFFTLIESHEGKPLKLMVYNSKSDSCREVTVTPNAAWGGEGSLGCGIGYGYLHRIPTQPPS
Chain of SCRIB_3, Q14160 (Q14160 999-1103): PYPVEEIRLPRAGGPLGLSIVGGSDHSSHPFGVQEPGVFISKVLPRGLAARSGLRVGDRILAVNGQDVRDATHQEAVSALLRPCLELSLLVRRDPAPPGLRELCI
Chain of PTPN3, P26045 (P26045 505-587): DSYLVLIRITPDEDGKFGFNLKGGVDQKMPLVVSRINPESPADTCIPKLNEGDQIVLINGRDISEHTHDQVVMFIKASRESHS

Row | Binder | pKd (CARD11, Q9BXL7) | pKd (DLG1_3, Q12959) | pKd (DLG4_1, P78352) | pKd (FRMPD2_2, Q68DX3) | pKd (FRMPD4, Q14CM0) | pKd (GORASP1, Q9BQQ3) | pKd (GRID2IP_2, A4D2P6) | pKd (GRIP1_4, Q9Y3R0) | pKd (GRIP2_4, Q9C0E4) | pKd (HTRA2, O43464) | pKd (Inadl_1, Q8NI35) | pKd (Inadl_2, Q8NI35) | pKd (Inadl_6, Q8NI35) | pKd (LDB3, O75112) | pKd (LIN7C, Q9NUP9) | pKd (LNX1_3, Q8TBB1) | pKd (MAGI2_2, Q86UL8) | pKd (MAGI2_6, Q86UL8) | pKd (MPDZ_12, O75970) | pKd (NHERF2_2, Q15599) | also measured
1 | AHGSTRDQSI [KCNB1, Q14721] | below the threshold | 3.93 | below the threshold | below the threshold | below the threshold | below the threshold | below the threshold | below the threshold | 3.68 | below the threshold | below the threshold | below the threshold | below the threshold | below the threshold | below the threshold | below the threshold | below the threshold | below the threshold | 3.62 | below the threshold | pKd (NHERF4_1, Q86UT5-2): 3.54; pKd (NHERF4_4, Q86UT5): 4.01; pKd (PARD3B_1, Q8TEW8): below the threshold; pKd (PTPN3, P26045): 4.07; pKd (RHPN1, Q8TCX5): below the threshold; pKd (SCRIB_3, Q14160): below the threshold; pKd (SHANK1, Q9Y566): 3.78; pKd (SIPA1L2, Q9P2F8): 3.58; pKd (SNX27, Q96L92): below the threshold
2 | PEKVSNTTVV [IGSF5, Q9NSI5] | below the threshold | below the threshold | 4.15 | below the threshold | below the threshold | 4.13 | below the threshold | below the threshold | below the threshold | below the threshold | below the threshold | below the threshold | below the threshold | below the threshold | below the threshold | below the threshold | 4.13 | below the threshold | below the threshold | below the threshold | pKd (NHERF4_1, Q86UT5-2): below the threshold; pKd (NHERF4_4, Q86UT5): below the threshold; pKd (PARD3B_1, Q8TEW8): below the threshold; pKd (PTPN3, P26045): below the threshold; pKd (RHPN1, Q8TCX5): 3.67; pKd (SCRIB_3, Q14160): below the threshold; pKd (SHANK1, Q9Y566): below the threshold; pKd (SIPA1L2, Q9P2F8): below the threshold; pKd (SNX27, Q96L92): 4.51

Further lines, with some results ahead:

Row | pKd (CARD11, Q9BXL7) | pKd (DLG1_3, Q12959) | pKd (DLG4_1, P78352) | pKd (FRMPD2_2, Q68DX3) | pKd (FRMPD4, Q14CM0) | pKd (GORASP1, Q9BQQ3) | pKd (GRID2IP_2, A4D2P6) | pKd (GRIP1_4, Q9Y3R0) | pKd (GRIP2_4, Q9C0E4) | pKd (HTRA2, O43464) | pKd (Inadl_1, Q8NI35) | pKd (Inadl_2, Q8NI35) | pKd (Inadl_6, Q8NI35) | pKd (LDB3, O75112) | pKd (LIN7C, Q9NUP9) | pKd (LNX1_3, Q8TBB1) | pKd (MAGI2_2, Q86UL8) | pKd (MAGI2_6, Q86UL8) | pKd (MPDZ_12, O75970) | pKd (NHERF2_2, Q15599) | Binder | also measured
3 | below the threshold | below the threshold | below the threshold | below the threshold | 3.49 | below the threshold | 3.66 | below the threshold | below the threshold | below the threshold | below the threshold | below the threshold | below the threshold | below the threshold | below the threshold | below the threshold | below the threshold | below the threshold | below the threshold | below the threshold | KSRPENGTVC [TMEM178B, H3BS89] | pKd (NHERF4_1, Q86UT5-2): below the threshold; pKd (NHERF4_4, Q86UT5): below the threshold; pKd (PARD3B_1, Q8TEW8): below the threshold; pKd (PTPN3, P26045): 3.77; pKd (RHPN1, Q8TCX5): below the threshold; pKd (SCRIB_3, Q14160): 3.66; pKd (SHANK1, Q9Y566): below the threshold; pKd (SIPA1L2, Q9P2F8): below the threshold; pKd (SNX27, Q96L92): 3.58
4 | below the threshold | below the threshold | below the threshold | below the threshold | below the threshold | below the threshold | 3.75 | below the threshold | below the threshold | below the threshold | below the threshold | below the threshold | below the threshold | below the threshold | 3.95 | below the threshold | below the threshold | below the threshold | 3.6 | below the threshold | QQGLLPHSSC [TYRO3, Q06418] | pKd (NHERF4_1, Q86UT5-2): 3.66; pKd (NHERF4_4, Q86UT5): below the threshold; pKd (PARD3B_1, Q8TEW8): below the threshold; pKd (PTPN3, P26045): below the threshold; pKd (RHPN1, Q8TCX5): below the threshold; pKd (SCRIB_3, Q14160): below the threshold; pKd (SHANK1, Q9Y566): below the threshold; pKd (SIPA1L2, Q9P2F8): below the threshold; pKd (SNX27, Q96L92): below the threshold
5 | below the threshold | below the threshold | 3.65 | below the threshold | 4.23 | below the threshold | 5.32 | below the threshold | below the threshold | below the threshold | below the threshold | below the threshold | 3.94 | below the threshold | below the threshold | below the threshold | below the threshold | 4.2 | below the threshold | 5.45 | EAVTVESTSL [SLC22A11, Q9NSA0] | pKd (NHERF4_1, Q86UT5-2): 4.55; pKd (NHERF4_4, Q86UT5): below the threshold; pKd (PARD3B_1, Q8TEW8): 4.43; pKd (PTPN3, P26045): 4.62; pKd (RHPN1, Q8TCX5): 4.86; pKd (SCRIB_3, Q14160): 4.75; pKd (SHANK1, Q9Y566): 5.68; pKd (SIPA1L2, Q9P2F8): below the threshold; pKd (SNX27, Q96L92): 5.41
